Reference: paper PMC7351999, “Structure of the DOCK2−ELMO1 complex provides insights into regulation of the auto-inhibited state” (Nature Communications, 2020)

B1: human DOCK2 (dedicator of cytokinesis 2) (natural protein)
chain: not shown
notes: DOCK2, human; Tag removed with TEV protease; samples for cryo-EM were cross-linked with glutaraldehyde; also called DOCK2^WT; source: High Five insect cells (baculovirus), co-expressed with ELMO1, purified (Strep-Tactin, Resource Q, Superose 6); not shown: double StrepII, C-terminal, cleaved
B2: N-terminal RBD domain of murine ELMO2 (amino acids 1–80) (domain or fragment, UniProt Q8BHL5 1-80, looked up)
chain: MPPPSDIVKVAIEWPGANAQLLEIDQKRPLASIIKEVCDGWSLPNPEYYTLRYADGPQLYVTEQTRNDIKNGTILQLAVS
notes: also called ELMO2^RBD; wild-type ELMO2^RBD; source: E. coli BL21 (DE3) CodonPlus, purified (GSH resin, thrombin cleavage on the resin, Superdex 75); not shown: GST, N-terminal, cleaved

Experiments:
[1] = molecular target: the molecule itself; assay: SEC; co-expressed and co-purified DOCK2–ELMO1 complex, wild type and dimer mutant; gel filtration buffer 50 mM Tris HCl (pH 8.0), 200 mM NaCl, 2 mM DTT; Superose 6 / Superdex 200 5/150GL
[2] = molecular target: T1, human RHOG (amino acids 1–179) (human, UniProt P84095 1-179); assay: ITC; ELMO2^RBD injected into the cell containing GMPPNP-loaded (activated) RHOG; 20 mM Tris-HCl (pH 7.5), 100 mM NaCl, 1 mM DTT; 25 °C; settings: both partners purified
T1 construct: RHOG, human, GeneID 391, amino acids 1–179; Loaded with GMPPNP (or GDP) as told for each assay; also called wild-type RHOG; source: E. coli BL21 (DE3) CodonPlus, purified (nickel-nitrilotriacetic acid, thrombin cleavage, Superdex 75)

RHOG D38A mutant = molecular target: T2, RHOG D38A mutant (human, UniProt P84095 1-179, D38A); assay: as above; settings: both partners purified
T2 construct: RHOG, human, GeneID 391, amino acids 1–179 with D38A; also called RHOG Asp38 to Ala mutant; source: E. coli BL21 (DE3) CodonPlus, purified (nickel-nitrilotriacetic acid, thrombin cleavage, Superdex 75)
T2 sequence (P84095 1-179 D38A): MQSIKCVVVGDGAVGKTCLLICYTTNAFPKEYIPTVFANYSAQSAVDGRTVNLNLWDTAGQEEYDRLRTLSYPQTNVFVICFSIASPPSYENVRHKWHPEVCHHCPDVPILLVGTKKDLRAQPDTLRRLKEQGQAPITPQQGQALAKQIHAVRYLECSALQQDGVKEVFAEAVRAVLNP

T1 sequence (P84095 1-179): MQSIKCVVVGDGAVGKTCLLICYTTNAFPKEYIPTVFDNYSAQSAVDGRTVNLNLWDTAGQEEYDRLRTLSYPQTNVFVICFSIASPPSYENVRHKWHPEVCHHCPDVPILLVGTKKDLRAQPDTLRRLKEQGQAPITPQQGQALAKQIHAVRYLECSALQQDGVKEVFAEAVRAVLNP

Row | Binder | stoichiometry N [1] | Kd [2] [µM] | Kd (RHOG D38A mutant) [µM]
1 | B1 | 2 | – | –
2 | B2 | – | 7.8 | 9
